Results reported in PMC11272584 (Nature Metabolism, 2024).
Substitutions are numbered along the chain they refer to.

Legend:
GIPR S415I (human) = molecular target: T1, GIPR S415I (human) (UniProt P48546)
T1 sequence: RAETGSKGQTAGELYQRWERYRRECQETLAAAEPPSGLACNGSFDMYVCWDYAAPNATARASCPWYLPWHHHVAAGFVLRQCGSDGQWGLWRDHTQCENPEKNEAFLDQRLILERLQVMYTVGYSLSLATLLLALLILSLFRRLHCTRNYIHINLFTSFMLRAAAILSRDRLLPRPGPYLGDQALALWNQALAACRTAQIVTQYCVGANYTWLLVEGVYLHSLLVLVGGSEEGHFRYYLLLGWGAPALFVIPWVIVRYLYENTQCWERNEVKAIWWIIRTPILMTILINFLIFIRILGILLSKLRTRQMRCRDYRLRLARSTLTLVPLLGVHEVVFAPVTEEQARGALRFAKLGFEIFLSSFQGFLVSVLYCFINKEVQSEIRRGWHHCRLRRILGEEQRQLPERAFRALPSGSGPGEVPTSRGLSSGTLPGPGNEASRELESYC

GIPR E418K (human) = molecular target: T2, GIPR E418K (human) (UniProt P48546)
T2 sequence: T1 sequence with I394S, E397K

Q: With “β-arrestin 2 (Rluc8-Arrestin-3-Sp1) (from UniProt P32121 1-409) (natural protein)” as the substance, how does the β-arrestin 2 recruitment (BRET) on stimulation with GIP(1-42): logEC50 (Arrestin) (log M (inferred)) (GIPR S415I (human)) read?
A: -9.12

Q: And the β-arrestin 2 recruitment (BRET) on stimulation with GIP(1-42): logEC50 (Arrestin) (log M (inferred)) (GIPR E418K (human))?
A: -9.19
